First the molecules themselves.
B1: CTHRC1-His (other)
chain: GAVGASEIPKGKQKAQLRQREVVDLYNGMCLQGPAGVPGRDGSPGANGIPGTPGIPGRDGFKGEKGECLRESFEESWTPNYKQCSWSSLNYGIDLGKIAECTFTKMRSNSALRVLFSGSLRLKCRNACCQRWYFTFNGAECSGPLPIEAIIYLDQGSPEMNSTINIHRTSSVEGLCEGIGAGLVDVAIWVGTCSDYPKGDASTGWNSVSRIIIEELPKLAASANSAVDHHHHHHHH
B2: hCMAb45 humanized anti-CTHRC1 antibody (antibody, V domains shown)
VH: QVQLVESGAEVKKPGASVKVSCKASGYSFTDYIILWVRQAPGQGLEWMGAINPYYGSTVYGQKFQGRLTITADGSMSTAYMELSSLRSEDTAVYYCARSGYGYDESAMDYWGQGTLVTVSS
VL: DIVMTQTPLSLPVTPGEPASISCRSSKSLLNSDGFTYLDWYLQKPGQSPQLLIYLVSNRFSGVPDRFSGSGSGTDFTLKISRVEAEDVGVYYCFQSNYLPLTFGQGTKLEIK
B3: cCMAb45 anti-CTHRC1 chimeric antibody (antibody, V domains shown)
VH: EVQLQQSGPELVKPGASVKISCKASGYSFTDYIMLWVKQSHGKSLEWIGNINPYYGSTSYNLKFKGKATLTVDKSSSTAYMQLNSLTSEDSAVYYCARSGYGYDESAMDYWGQGTSVTVSS
VL: B2 VL with I2V, V3L, T14N, P15I, E17D, P18Q, R24K, S26T, V88L, Q105S
B4: hCMAb96 humanized anti-CTHRC1 antibody (antibody, V domains shown)
VH: QVQLVQSGAEVKKPGASVKVSCKASGYTFTSYWMHWVRQAPGQGLEWIGYIYPSSGTTNYNQKFQGRVTITADESTSTAYMELSPLRSEDTAVYYCTTESYWGQGTTVTVSS
VL: DIQMTQSPSSLSASLGDTITITCHASQNINVWLAWYQQKPGKAPKLLIYKASNLHSGVPSRFSGSGSGTDFTLTISSLQPEDIATYYCQQGQSYPLTFGQGTKVEIK
B5: cCMAb96 anti-CTHRC1 chimeric antibody (antibody, V domains shown)
VH: QVQLQQPGSELVRPGASVKLSCKASGYTFTSYWMHWVKQRPGQGLEWIGNIYPSSGTTNYDEKFKNKATLTVDTSSTTAYMHLSSLTSEDSAVYYCTTESYWGQGTTLTVSS
VL: B4 VL with Q3V, A34S, K42N, A43I, S56T, D70G, Q100G, V104L

Holding throughout (assay): ELISA
In general terms: ELISA stands for enzyme-linked immunosorbent assay.

Assay [1] has as its target SA2766.
In assay [2] the target is SA2772.
Assay [3] deals with SA2771.
Assay [4] concerns the target SA2767.
The target in assay [5] is SA2760.
For assay [6], the target named is SA2764.
Assay [7] deals with SA2763.
In assay [8] the target is SA2773.
The target in assay [9] is SA2758.
Assay [10] has as its target B1.
Assay [11] deals with B1. The source holds these as a separate data set.

Positions count from the first letter of the chain named. Read-outs that look alike come from different tables or passages of the source.

This passage reports Kd results from US20220204599A1 (published 2022).

For orientation: Kd means the free concentration of one partner at which half of the binding sites on the other are occupied at equilibrium, for simple one-to-one binding.

For B1, the Kd is 0.202 nM in assay [1]; 0.406 nM in assay [2]; 0.221 nM in [3]; 0.48 nM in assay [4]; 0.118 nM in [5]; 0.175 nM in assay [6]. In addition, the Kd in assay [7] turned out to be 0.25 nM; in assay [8] it was 0.3 nM; in assay [9], 0.082 nM.

For the molecule B2, the Kd in assay [10] was 0.089 nM; in assay [11], 0.128 nM.

For the molecule B3, the dissociation constant (Kd) in [10] is 0.093 nM; in assay [11], 0.257 nM.

On to B4, for which the Kd worked out at 0.131 nM in assay [10] and 0.196 nM in assay [11].

Consider B5, for which the Kd in assay [10] turned out to be 0.128 nM; in [11], 0.187 nM.
